Results reported in article PMC9809158 (Nature structural & molecular biology, 2022).
Where “and” joins values, the source holds several entries; their conditions need not be identical. Equal values may be shown once. Read-outs that look alike come from different tables or passages of the source.

Assays:
[1] = target: full-length NaVSp1 (from His-MBP-NaVSp1), reconstituted in lipid nanodiscs or amphipol A8-35 (Silicibacter pomeroyi); assay: SEC-MALS
[2] = target: NaVAb1p (Alcanivorax borkumensis NaVAb1 'pore only' protein), crystallised from bicelles (Alcanivorax borkumensis); assay: crystal structure
[3] = target: T1, full-length NaVSp1 (from His-MBP-NaVSp1), reconstituted in lipid nanodiscs or amphipol A8-35 (Silicibacter pomeroyi); assay: SEC-MALS
T1 chain: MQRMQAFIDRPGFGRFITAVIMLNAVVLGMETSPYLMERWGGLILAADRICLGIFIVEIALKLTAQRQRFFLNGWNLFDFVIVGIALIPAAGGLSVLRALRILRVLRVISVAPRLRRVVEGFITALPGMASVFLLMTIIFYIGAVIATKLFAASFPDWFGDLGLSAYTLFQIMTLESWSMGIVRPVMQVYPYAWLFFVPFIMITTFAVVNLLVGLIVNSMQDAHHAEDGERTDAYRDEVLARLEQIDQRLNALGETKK

[4] = target: full-length NaVAe1 with C-terminal GFP (Alkalilimnicola ehrlichii, entry strain …, UniProt Q0ABW0); assay: fluorescence-detection size-exclusion chromatography
[5] = target: full-length NaVSp1 with C-terminal GFP (Silicibacter (Ruegeria) pomeroyi, entry …, UniProt F7IVA8); assay: as above

## full-length NaVSp1 (from His-MBP-NaVSp1), reconstituted in lipid nanodiscs or amphipol A8-35 (natural protein)
[1]
  stoichiometry N: 4 and 8

## NaVAb1p (Alcanivorax borkumensis NaVAb1 'pore only' protein), crystallised from bicelles (domain or fragment)
[2]
  stoichiometry N: 4

B1: sFab SAT09 (synthetic Fab from phage display, selected on NaVAe1/Sp1CTD in nanodiscs) (Fab, V domains shown)
VH: EVQLVESGGGLVQPGGSLRLSCAASGFNFSSSSIHWVRQAPGKGLEWVASISSSSGSTSYADSVKGRFTISADTSKNTAYLQMNSLRAEDTAVYYCARTYGWYYSWWWAFDYWGQGTLVTVSS
VL: DIQMTQSPSSLSASVGDRVTITCRASQSVSSAVAWYQQKPGKAPKLLIYSASSLYSGVPSRFSGSRSGTDFTLTISSLQPEDFATYYCQQGDPRLVTFGQGTKVEIK
[3]
  stoichiometry N: 2 SAT09 sFabs to one channel
[4]
  binding result: binds
[5]
  binding result: binds
